Results: PMC11696373 (Nature Communications, 2025)

Molecular target: the molecule itself
Test: cryo-EM structure

B1: human XPR1 (natural protein)
chain: MKFAEHLSAHITPEWRKQYIQYEAFKDMLYSAQDQAPSVEVTDEDTVKRYFAKFEEKFFQTCEKELAKINTFYSEKLAEAQRRFATLQNELQSSLDAQKESTGVTTLRQRRKPVFHLSHEERVQHRNIKDLKLAFSEFYLSLILLQNYQNLNFTGFRKILKKHDKILETSRGADWRVAHVEVAPFYTCKKINQLISETEAVVTNELEDGDRQKAMKRLRVPPLGAAQPAPAWTTFRVGLFCGIFIVLNITLVLAAVFKLETDRSIWPLIRIYRGGFLLIEFLFLLGINTYGWRQAGVNHVLIFELNPRSNLSHQHLFEIAGFLGILWCLSLLACFFAPISVIPTYVYPLALYGFMVFFLINPTKTFYYKSRFWLLKLLFRVFTAPFHKVGFADFWLADQLNSLSVILMDLEYMICFYSLELKWDESKGLLPNNSEESGICHKYTYGVRAIVQCIPAWLRFIQCLRRYRDTKRAFPHLVNAGKYSTTFFMVTFAALYSTHKERGHSDTMVFFYLWIVFYIISSCYTLIWDLKMDWGLFDKNAGENTFLREEIVYPQKAYYYCAIIEDVILRFAWTIQISITSTTLLPHSGDIIATVFAPLEVFRRFVWNFFRLENEHLNNCGEFRAVRDISVAPLNADDQTLLEQMMDQDDGVRNRQKNRSWKYNQSISLRRPRLASQSKARDTKVLIEDTDDEANT
- stoichiometry N: 2
